We go through one substance from patent publication US20250129167A1.

This experiment addresses PD-L1 on CHO-PD-L1 cells (Promega blockade system) (UniProt Q9NZQ7).

Sequence of PD-L1 on CHO-PD-L1 cells (Promega blockade system) (Q9NZQ7 19-290 limits assumed): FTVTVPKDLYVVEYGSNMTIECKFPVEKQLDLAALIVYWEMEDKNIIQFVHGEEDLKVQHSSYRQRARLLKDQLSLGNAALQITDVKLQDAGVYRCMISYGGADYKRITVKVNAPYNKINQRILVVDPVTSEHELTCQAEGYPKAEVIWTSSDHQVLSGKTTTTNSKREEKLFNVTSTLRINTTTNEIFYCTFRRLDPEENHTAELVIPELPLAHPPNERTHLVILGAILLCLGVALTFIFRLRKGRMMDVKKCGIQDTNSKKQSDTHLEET

For Tecentriq (antibody), the EC50 (read off the curve); luciferase fold induction, Promega CHO-PD-L1 / PD-1 Jurkat assay worked out at 0.1 nM.
